Data reported in the RNAGym collection of RNA variant scans (doi:10.1073/pnas.2313332121).
Fewer inactive variants are shown than the library holds.

B1: TPR 5TU (parent)
chain: GGAUCUUCUCGAUCUAACAAAAAAGACAAAUCUGCCACAAAGCUUGAGAGCAUCUUCGGAUGCAGAGGCGGCAGCCUUCGGUGGCGCGAUAGCGCCAACGUUCUCAACUAUGACACGCAAAACGCGUGCUCCGUUGAAUGGAGUUUAUCAUG

Variants of: B1
Assay: polymerase ribozyme fitness, log enrichment relative to wild type (log ratio); higher = more active; in vitro selection for triplet polymerase activity
Procedure, shortened: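 Each subunit of a heterodimeric triplet polymerase ribozyme was represented by a PCR-built, transcribed mutant library that underwent triplicate single-round in vitro selection with frozen incubation at −7 °C. Extended constructs were recovered by gel excision, streptavidin-bead capture and RT-PCR, and Illumina sequencing of input and output libraries kept genotypes with ≥10 input reads and ≥1 read per output. Fitness is the logarithm of genotype enrichment relative to wild-type enrichment, from inverse-variance-weighted replicate averages, with a logarithm base of 2.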

Variant	polymerase ribozyme fitness (log ratio)
C93G C108G C116G G133C	-3.85
C85U C108U	-3.1
A91U C118G G141C	-3.94
G88A U101G U102G A138U U139G	≤ -4.2
U90C G94U	-3.46
G88U	-3.89
G88C	-4.19
G88A	-3.75
C87U G124A	-0.0826
G86A U101G	-0.828
C93A A97U	-3.38
C93A A97G	-3.37
G88A C93A C123U G126U G133U G140U	≤ -4.2
G88C G141C	-3.84
G86U A91C C99G U109G	≤ -4.2
C87A G117C U146C	≤ -4.2
C85U U127C A137U	≤ -4.2
U90C U148G	≤ -4.2
C93A C105A	≤ -4.2
C93U A119G C123U U135G	-4.18
G92A A138C U148C	≤ -4.2
C93G C132G	≤ -4.2
C87U C105U A107U	-3.79
G86C C99U	-2.83

Variant	polymerase ribozyme fitness (log ratio)
C87U C129G	-2.63
C85U C103G	-3.48
G92A A106G	-2.36
C85U C96G U135C	-2.57
C85U C96U G126C A147G	≤ -4.2
C85U C96A C116G	-0.604
C93A U104C	-3.27
C93A A107G	≤ -4.2
G92C G94A	-2.95
G86A U148C	-1.5
C93G U144A	-2.68
G92A A98G	-3
C93A A150C	-3.74
G92A C116U	-2.29
G92A C116G	-2.6
A91G C105U C131A	-3.83
C87U C93U	-2.9
A91G U130G A150G	≤ -4.2
G92A C96A C103G C105U A107G A119G C125U C149A	≤ -4.2
U90C A91U C114U C118U U144G	-4.15
C85U U145C	-0.732
G92C U101G C131A	-3.96
C93G G141U	-2.01
A91G C95U C125U	-4.09

Variant	polymerase ribozyme fitness (log ratio)
C93U A98C	-0.981
C87U U127A	-3.2
A91C U144C	-4.19
G88A C116U	-4.05
A91C A113G	-4.15
A91G G133A G141U G143U	≤ -4.2
C87A A91G C103U U135C	≤ -4.2
A89U C96U C118U A122G U139G	-0.0743
C93G A142G	-3.81
G86A U90G	≤ -4.2
A89C A150C	-3.81
A91G C108U C116G G152A	-3.48
C87U C116A G117C C118G	-1.82
G86A G141A	-0.545
C87G C99U C116G	-3.37
C85U C95G	-2.03
C93U A119U G141A	-0.528
U90A C95U	≤ -4.2
C87U C103G C116U	-1.35
A89U A107U G133A A142G	≤ -4.2
C87U C118U U135G	≤ -4.2
C87U A120U C123G	-1.06
C87A A89U	≤ -4.2
C93A G143A	-2.78

Variant	polymerase ribozyme fitness (log ratio)
C87U C131U	1.46
G92A C125A U134G	-3.58
G86A G88U G117U	≤ -4.2
A89C G124A	-1.59
C87U U144G	-0.986
C93A C99G	-3.88
G92U C96A U127C U145C A147C	≤ -4.2
G88U C105U	-3.83
G86U C118U C125U	-4.01
C93U C95U	-2.43
C93U A137G C149U	-2.47
C93G A107U	-4.14
C93U A98G G124C	-1.76
A89G U139G	-0.875
G88U A121C	≤ -4.2
C87G G92C C105U	0.371
U90G C116G	-3.78
C93G G128U U146C	≤ -4.2
C85U C95G A119U	-1.89
G86U C93U	-2.59
G86C A89U	-2.94
C87U C108G U145G	≤ -4.2
C85U C95A U127G	-3.88
C85U U146A G152U	-3.06

Variant	polymerase ribozyme fitness (log ratio)
A89U C95A A97U U111G G124A C149A U151C	≤ -4.2
A91G C114A C116U A137C	-3.79
G86U G124A U148A	-3.78
C87A U127G	≤ -4.2
C93A G124C	-2.88
A91G C118G G143C	≤ -4.2
C87A C125U	-4.14
C93G C118U C123U	-3.29
G88A A147C	-4.01
G86U A147G	-3.45
G92A A98C G133C A142U	≤ -4.2
C85U G92U U139G	-1.29
C87G C99U	≤ -4.2
A91U G124U C131G	≤ -4.2
U90A U130A	≤ -4.2
G86U G133A	≤ -4.2
C85U C95A G136U A138C	≤ -4.2
C93G C96A C105U C116U	-4.17
G88U U127C	-4.15
C87U G141C	-1.72
C87U G141A	-0.85
A89U G94U	-1.2
C93A U148C	-3.62
C93A U148G	≤ -4.2

Variant	polymerase ribozyme fitness (log ratio)
A89U C95G	-1.9
C93A C125A	-1.68
C87G U90C	-4.07
C87U U104G	-0.825
G86A C114A	-4.1
G86A C114U	-2.15
A89G G92C A97C C114U	-3.82
C85U G94A A121C A138U	-4.08
C93A U127C	-3.6
C85U G143C	-1.66
C93U A121C G140C	≤ -4.2
G86U C99G	-3.67
C85U U127G	-3.46
A91U A106C C125A	≤ -4.2
C87A U146G	≤ -4.2
G88C G126C	≤ -4.2
C87G U144G	≤ -4.2
G88U G126A	-2.98
A91C U102G A138C	≤ -4.2
G86A U90C U102C A137G	≤ -4.2
C85U C149A	≤ -4.2
G88C G117C A138U G143C	≤ -4.2
G88A C95A C123A	≤ -4.2
G92U A115C	-2.23

Variant	polymerase ribozyme fitness (log ratio)
A91U U139A G140C G143C	≤ -4.2
A91U U104A G141A U148A	≤ -4.2
C87G A113C A138U U146C	≤ -4.2
A91G G140A	-4.12
C93A C116A G126A G141C	≤ -4.2
A91C A115G U146A	≤ -4.2
G92U G133C	-2.1
C87A C103U C108A A110C C132A	≤ -4.2
C85U U144A	-0.618
C87U C105U	-2.21
G92C G141C	-0.623
C93U A137G	-3.18
A89C G143A	-0.0918
C87U C123U G126U	0.848
A91U C96U C103A U109C	≤ -4.2
G88U A115C A120G	-3.89
C93G G140U	≤ -4.2
A89G G117U	-0.974
C93U C95G A113G A137U A138U	≤ -4.2
C93A C118G	-3.44
C93A C118U	-3.29
G92A C105U G141C	-3.39
G86U G88A	≤ -4.2
